This assay concerns the target T1, MMP-2 (Mus musculus, UniProt P33434).
T1 construct: purchased R&D Systems
Put plainly: MMP inhibition assay (FRET peptide substrate), APMA-activated pro-MMP-2. It is filed as biochemical. As for the experimental part:
RFU, relative fluorescence unit, was obtained by considering the read out in PBS as 100%. Each reaction was performed in triplicate. Standard errors were depicted as a bar in each graph. Differences between values of PBS and CLU or SB-3CT reactions were statistically significant by Student t-test: *P=0.0004, **P=0.0001, +P=0.0003, and ++P=0.01. Gelatin zymography was performed with the samples pooled from each reaction set. Pro-MMPs, processed MMPs (MMP-9 or MMP-2), and C-terminal truncated, processed MMP-9 (MMP-9-ΔC) were indicated by arrows. (B) Dose-dependent inhibition of MMP-9 by CLU or SB-3CT was performed in the same condition. MMPs were mixed with CLD in TSCB buffer, 50 mM Tris-HCI, pH, 7.5, 150 mM NaCl, 5 mM CaCl2, 0.002% Brij35 (or otherwise indicated concentration) 30 min prior to substrate addition, and incubated for 3 h at RT in the presence or absence of 0.02 mM p-aminophenylmercuric acetate (APMA). MMP activity was measured using a 5-FAM/QXL520 fluorescence resonance energy transfer (FRET) peptide as a substrate (EXlEm=490 nm/520 nm) (AnaSpec, Fremont, Calif.), according to the manufacturer's protocol. Relative fluorescence unit (RFU) was obtained by subtracting the values of APMA- or enzyme-omitted reactions from those of test samples, and then considering the fluorescence unit of a PBS (vehicle) sample as 100%. Enzyme reactions were performed in black 96-well plate, containing combinations of 10 ng, 5 ng, 5 ng, 10 ng, 2.5 μg, 2.5 μg of MMP-2, MMP-7, catalytic domain of MMP-9, MMP-9, CCLU, and/or BSA, respectively, in 50 μl reaction volume. As MMP substrates (0.4 μM), 520 MMP FRET substrate […] (SEQ ID NO: 9), was used for MMP-2 and MMP-9, and 520 MMP FRET substrate XIV, […] […] Fluorescence was monitored using a Victor^3TM V multilabel counter (PerkinElmer). […] To determine whether MMP-9/CLU interaction affects the cleavage process of the propeptide of MMP-9 and/or interferes with enzymatic activity of the processed active enzyme, we performed an in vitro MMP-9 inhibition assay, by adopting FRET assay using a fluorescence-quenched peptide substrate (FIG. 3A). […] We incubated pro-MMP-9 with PBS, CLU, SB-3CT, or BSA, and a fluorescence peptide substrate in the presence or absence of APMA. […] We monitored the change in fluorescence value during the incubation of the reactions up to 3 h, which reflects the enzymatic activity of APMA-activated MMPs. […] At 3 h post incubation, the activity difference was read and reaction products were resolved by gelatin zymography. […] When the processed enzyme products were resolved on the gel, three bands were detected in the APMA-treated samples, pro-MMP-9, propeptide-cleaved MMP-9 (MMP-9), and MMP-9 with both propeptide and C-terminal region cleaved (MMP-9-ΔC), whereas only pro-MMP-9 was detected in APMA-omitted samples. […]

T1 sequence (P33434 110-662): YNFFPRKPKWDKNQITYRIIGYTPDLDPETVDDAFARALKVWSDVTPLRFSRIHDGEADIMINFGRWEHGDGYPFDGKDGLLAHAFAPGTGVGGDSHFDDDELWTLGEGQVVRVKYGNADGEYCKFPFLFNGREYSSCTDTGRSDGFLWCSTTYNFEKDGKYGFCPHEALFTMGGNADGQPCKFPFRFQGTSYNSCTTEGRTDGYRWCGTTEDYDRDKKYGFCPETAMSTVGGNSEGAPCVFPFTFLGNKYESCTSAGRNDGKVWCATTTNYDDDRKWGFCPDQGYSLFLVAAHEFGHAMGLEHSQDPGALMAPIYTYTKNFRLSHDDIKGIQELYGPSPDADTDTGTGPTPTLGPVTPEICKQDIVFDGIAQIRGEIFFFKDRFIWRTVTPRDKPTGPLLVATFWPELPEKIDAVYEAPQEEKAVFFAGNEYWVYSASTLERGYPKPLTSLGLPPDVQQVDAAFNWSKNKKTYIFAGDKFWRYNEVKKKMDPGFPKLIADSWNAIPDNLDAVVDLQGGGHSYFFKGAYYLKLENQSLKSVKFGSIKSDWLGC

B1: CLU: secreted disulfide-linked heterodimeric glycoprotein (70-80 KD); assays used recombinant mouse CLU with C-terminal (His)6 (protein, UniProt Q06890 22-448, looked up)
Clusterin: EQEVSDNELQELSTQGSRYINKEIQNAVQGVKHIKTLIEKTNAERKSLLNSLEEAKKKKEDALEDTRDSEMKLKAFPEVCNETMMALWEECKPCLKHTCMKFYARVCRSGSGLVGQQLEEFLNQSSPFYFWMNGDRIDSLLESDRQQSQVLDAMQDSFARASGIIDTLFQDRFFARELHDPHYFSPIGFPHKRPHFLYPKSRLVRSLMSPSHYGPPSFHNMFQPFFEMIHQAQQAMDVQLHSPAFQFPDVDFLREGEDDRTVCKEIRRNSTGCLKMKGQCEKCQEILSVDCSTNNPAQANLRQELNDSLQVAERLTEQYKELLQSFQSKMLNTSSLLEQLNDQFNWVSQLANLTQGEDKYYLRVSTVTTHSSDSEVPSRVTEVVVKLFDSDPITVVLPEEVSKDNPKFMDTVAEKALQEYRRKSRAE
modifications: C-terminal His6 tag
As for B1, the “effect on APMA-induced processing of MMP-2 (gel analysis)” value (APMA-treated reactions) is on record as “processing of MMP-2 was not altered”. In addition, the “inhibition of MMP-2 activity” value (CLU 50 μg/ml (0.63 μM), APMA, RT 3 h) was found to be 72%. The “potency on MMP-2 compared with SB-3CT” value (CLU 50 μg/ml or 0.63 μM versus SB-3CT 1 μM) was “more potent inhibitor of both MMP-9 and MMP-2 than SB-3CT”. The “MMP-2 inhibition at high detergent concentration” value (buffer with 0.04% Brij 35 or NP-40) is “inhibited by CLU in both buffers to the extent similar to that in the lower detergent concentration”.

The values above are taken from patent publication US10398755B2, “Clusterin pharmaceuticals and treatment methods using the same” (UNIVERSITY OF SOUTHERN CALIFORNIA, priority 2009, dated 2019).
